Consider one variant from IntAct's records for PubMed 12679340.

First the molecules themselves.
B1: Ornithine carbamoyltransferase (Saccharomyces cerevisiae), P05150 (parent)
chain: MSTTASTPSSLRHLISIKDLSDEEFRILVQRAQHFKNVFKANKTNDFQSNHLKLLGRTIALIFTKRSTRTRISTEGAATFFGAQPMFLGKEDIQLGVNESFYDTTKVVSSMVSCIFARVNKHEDILAFCKDSSVPIINSLCDKFHPLQAICDLLTIIENFNISLDEVNKGINSKLKMAWIGDANNVINDMCIACLKFGISVSISTPPGIEMDSDIVDEAKKVAERNGATFELTHDSLKASTNANILVTDTFVSMGEEFAKQAKLKQFKGFQINQELVSVADPNYKFMHCLPRHQEEVSDDVFYGEHSIVFEEAENRLYAAMSAIDIFVNNKGNFKDLK

The variants in this test derive from B1. The conditions noted are these: with argi_yeast CAR1, P00812.
argi_yeast CAR1, P00812, sequence (P00812 whole entry): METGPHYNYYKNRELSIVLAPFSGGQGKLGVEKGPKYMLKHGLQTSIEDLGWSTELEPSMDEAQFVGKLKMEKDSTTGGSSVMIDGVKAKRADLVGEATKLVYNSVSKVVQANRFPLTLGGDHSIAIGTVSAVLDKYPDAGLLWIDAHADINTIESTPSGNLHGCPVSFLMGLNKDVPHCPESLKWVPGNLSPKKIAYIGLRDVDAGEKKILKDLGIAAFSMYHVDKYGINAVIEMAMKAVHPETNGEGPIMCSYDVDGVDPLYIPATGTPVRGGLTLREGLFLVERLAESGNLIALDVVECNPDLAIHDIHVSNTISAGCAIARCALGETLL
On to D182N, for which the “effect of a mutation on the interaction” value is reported as “decreasing interaction”.
